Test results from patent publication US20240016892A1 (SHATTUCK LABS, published 2024).

Assays:
[1] = target: T1, recombinant human HVEM-Fc (human, UniProt Q92956 39-202, limits assumed); assay: MSD sandwich 'Dual - Potency #2': capture HVEM-Fc, TIGIT-Fc-LIGHT titrated, detection PVR-Biotin
T1 construct: also called human recombinant HVEM (MSD plates); not shown: Fc of the bought fusion (Acro Biosystems); not described
T1 sequence (looked up): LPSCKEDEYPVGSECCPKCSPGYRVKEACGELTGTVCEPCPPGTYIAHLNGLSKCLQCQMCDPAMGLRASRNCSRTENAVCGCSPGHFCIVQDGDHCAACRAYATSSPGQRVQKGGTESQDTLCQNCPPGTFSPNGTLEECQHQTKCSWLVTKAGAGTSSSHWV
Procedure: (§1) For the TIGIT-Fc-LIGHT chimeric protein; MSD Multi-Array plates (MSD) were pre-coated overnight with recombinant human LTβR-Fc or HVEM-Fc (Acro Biosystems) at 4° C. The plates were blocked with Diluent 100 (MSD) for at least one hour at room temperature on a shaker. After washing, analysis samples were added and then serially diluted 3-fold and loaded in duplicate wells to generate 8-10 test concentrations. The bound the TIGIT-Fc-LIGHT chimeric protein was detected with recombinant biotinylated human PVR (Acro Biosystems). Streptavidin conjugated to ruthenium (MSD), was added to bind the biotin labeled detector. MSD Gold Reading buffer (MSD) was added to the plate, and upon application of an electrical charge, an electrochemiluminescent signal was produced and detected with the MSD MESO QuickPlex SQ 120MM, Model 1300, to generate relative light units (RLU). Analogous assays were performed using mTIGIT-Fc-LIGHT and murine recombinant PVR, HVEM, and […] (Acro Biosystems).
(§2) The binding of the TIGIT-Fc-LIGHT chimeric protein to its receptors was characterized by Meso Scale Discovery (MSD) ELISA assays. […] Binding of the chimeric protein to LTβR-Fc was detected using an PVR-Biotin and using an electrochemiluminescence (ECL) readout. […] Binding of the chimeric protein to HVEM-Fc was detected using an PVR-Biotin and using an electrochemiluminescence (ECL) readout. […]

[2] = target: T2, recombinant human LTβR (human, UniProt P36941 31-227, limits assumed); assay: BLI (Octet-Red96), tagged rhLTβR immobilised on biosensor
T2 construct: Bought from Acro Biosystems or Sino Biological; construct limits and tag not specified; also called rhLTβR; TNFRSF3
T2 sequence (P36941 31-227 limits assumed): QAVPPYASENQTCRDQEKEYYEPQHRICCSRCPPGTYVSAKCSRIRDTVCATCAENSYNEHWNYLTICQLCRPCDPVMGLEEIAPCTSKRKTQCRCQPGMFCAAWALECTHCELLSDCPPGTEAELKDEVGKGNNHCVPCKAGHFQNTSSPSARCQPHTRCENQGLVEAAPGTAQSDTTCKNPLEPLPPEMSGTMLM
Procedure: (§3) Bio-Layer interferometry-based affinity testing was used to determine the on-rates (Ka), off-rates (Kd) and binding affinities (KD) of the TIGIT-Fc-LIGHT chimeric protein to intended binding targets, using histidine- or biotin-tagged versions of the human recombinant proteins (PVR, HVEM, LTβR, PVRL2, PVRL3, and Nectin-4; purchased from Acro Biosystems or Sino Biological). Commercially available or internally produced single-sided fusion protein controls (TIGIT-Fc and Fc-LIGHT) were also tested in parallel. Targets were immobilized at a concentration of 3 μg/mL in Kinetics buffer (PBS/0.1% Tween-20/1% BSA; pH7.0) to anti-pentaHis or streptavidin coated biosensors. Direct binding of fusion proteins to recombinant target proteins was performed on an Octet-Red96 BLI instrument, using association and dissociation times of 90 and 120 seconds, respectively.
(§4) Protein-protein interactions (PPI) between the fusion proteins and their cognate binding partners were characterized using both recombinant protein and cell-based methods. First, bio-layer interferometry-based affinity testing was used to assess the kinetics of receptor/ligand binding.

[3] = target: T3, recombinant human PVR (human, UniProt P15151 21-343); assay: MSD sandwich 'Dual - Potency #1': capture LTβR-Fc, TIGIT-Fc-LIGHT titrated, detection PVR-Biotin (same curve as the capture row)
T3 construct: The tagged PVR of the BLI assay and the biotinylated PVR used as detector in MSD are treated as one molecule; also called rhPVR; CD155
T3 sequence (looked up): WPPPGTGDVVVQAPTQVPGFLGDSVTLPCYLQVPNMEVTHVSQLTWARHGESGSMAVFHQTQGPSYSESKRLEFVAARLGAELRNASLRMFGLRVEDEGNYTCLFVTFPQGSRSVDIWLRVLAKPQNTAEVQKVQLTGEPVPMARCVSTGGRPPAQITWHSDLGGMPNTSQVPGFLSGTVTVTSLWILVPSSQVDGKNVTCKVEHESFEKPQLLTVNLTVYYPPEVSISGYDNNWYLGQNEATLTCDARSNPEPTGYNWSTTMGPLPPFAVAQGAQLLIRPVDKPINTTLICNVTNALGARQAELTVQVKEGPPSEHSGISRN
Procedure: as §1, §2

[4] = target: T2, recombinant human LTβR; assay: BLI (Octet), affinity for recombinant human LTβR compared with Fc-LIGHT
Procedure: as §3, §4

[5] = target: T4, cell surface human PVR (CHO-K1/hPVR cells) (human, UniProt P15151 21-417); assay: flow cytometry, CHO-K1 cells stably expressing human PVR; cell surface PVR
T4 construct: whole, on cells; also called cell surface PVR; CD155(PVR)
T4 sequence (looked up): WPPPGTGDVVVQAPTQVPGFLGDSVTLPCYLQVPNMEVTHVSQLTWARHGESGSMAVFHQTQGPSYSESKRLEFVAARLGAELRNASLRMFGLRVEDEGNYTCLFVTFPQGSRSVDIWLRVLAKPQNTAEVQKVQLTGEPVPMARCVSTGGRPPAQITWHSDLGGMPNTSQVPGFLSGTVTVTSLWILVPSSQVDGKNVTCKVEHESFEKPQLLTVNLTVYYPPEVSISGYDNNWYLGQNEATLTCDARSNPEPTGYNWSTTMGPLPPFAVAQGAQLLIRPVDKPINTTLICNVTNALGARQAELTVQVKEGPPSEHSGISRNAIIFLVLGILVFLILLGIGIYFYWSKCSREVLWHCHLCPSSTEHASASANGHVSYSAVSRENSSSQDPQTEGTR

B1: human TIGIT-Fc-LIGHT chimeric protein (Fc fusion)
chain: MMTGTIETTGNISAEKGGSIILQCHLSSTTAQVTQVNWEQQDQLLAICNADLGWHISPSFKDRVAPGPGLGLTLQSLTVNDTGEYFCIYHTYPDGTYTGRIFLEVLESSVAEHGARFQIPSKYGPPCPPCPAPEFLGGPSVFLFPPKPKDQLMISRTPEVTCVVVDVSQEDPEVQFNWYVDGVEVHNAKTKPREEQFNSTYRVVSVLTVLHQDWLSGKEYKCKVSSKGLPSSIEKTISNATGQPREPQVYTLPPSQEEMTKNQVSLTCLVKGFYPSDIAVEWESNGQPENNYKTTPPVLDSDGSFFLYSRLTVDKSRWQEGNVFSCSVLHEALHNHYTQKSLSLSLGKIEGRMDLQLHWRLGEMVTRLPDGPAGSWEQLIQERRSHEVNPAAHLTGANSSLTGSGGPLLWETQLGLAFLRGLSYHDGALVVTKAGYYYIYSKVQLGGVGCPLGLASTITHGLYKRTPRYPEELELLVSQQSPCGRATSSSRVWWDSSFLGGVVHLEAGEKVVVRVLDERLVRLRDGTRSYFGAFMV
notes: Said to exist as a hexamer (dimer of trimers); Glycosylated; also called hTIGIT-Fc-LIGHT; TIGIT-Fc(IgG4)-LIGHT
What does the source list for B1?
EC50 [1]: 86 nM; Kd [2]: 3.52 nM; koff [2]: 7.44e-05 s⁻¹; kon [2]: 21200 M⁻¹ s⁻¹; EC50 [3]: 28.3 nM; fold affinity relative to Fc-LIGHT control [4]: ~8 fold; EC50 [5]: 35.4 nM
